For this assay, the target named is Human serum albumin domain I (human). The experiment in a line: SEC; analytical Superdex 75 10/300 calibrated with known proteins; 100 uL of purified DomI at 90 ug/mL; Tris 50 mM, pH 8, 100 mM NaCl; 0.8 mL/min; dimer non-covalent by reducing and non-reducing SDS-PAGE.

“Human serum albumin domain I (domain or fragment)” had a stoichiometry N of 2.
